# Measurements: article PMC3565990
# Biological target: SHP-1 (UniProt P29351)
# Assay: anti-FLAG IP, anti-SHP-1 Western blot
# Details: reference: wild-type CD72fl, NP-BSA stimulated; sites Y7
substance,measurement,value
"human CD72fl (FLAG-tagged) (from UniProt P21854) CD72flYF (Y7F), NP-BSA stimulated",binding against the reference,lost
